# Data as given in publication doi:10.1101/2023.06.05.543797.
# Several values for one entry are separate records, joined by “and”; a condition that tells them apart may be missing. Equal entries are not always repeated.
# What was measured:
# Conditions in all cases: scale: KASH6 per SUN1
# [1] = target: SUN domain of human SUN1 (amino-acids 616-812) (human); test: SEC-MALS
# [2] = target: SUN domain of human SUN1 (amino-acids 616-812) (human); test: SEC-MALS; remark: listed apart in the source
# [3] = target: SUN domain of human SUN1 (amino-acids 616-812) (human); test: crystal structure
# [4] = target: SUN domain of human SUN1 (amino-acids 616-812) (human); test: SEC-MALS; remark: listed apart in the source
stoichiometry N [1],stoichiometry N [2],stoichiometry N [3],stoichiometry N [4],Binder
0.67 and 1,1,0.67,,TGQLFQKSVDAAPTQQEDSWTSLEHILWPFTRLRHNGPPPV [KASH domain of human JAW1/LRMP (amino-acids 515-555)]
,1,,0.67,EDSWTSLEHILWPFTRLRHNGPPPV [KASH6 core (human JAW1/LRMP amino-acids 531-555)]
